These are literature values, as cited in patent US20250352622A1, “GLP-1 FORMULATIONS AND THEIR USES” (Rose Pharma Inc., priority 2024, published 2025).

Read-outs that look alike come from different tables or passages of the source.

For dulaglutide, the t1/2 result (longer acting GLP-1 agonist) is reported as “about 90 hours”.
lixisenatide: the half-life result (in vivo) is on record as “about 3 hours”.
Consider semaglutide, for which, under “in vivo”, the t1/2 result is “about 1 week”.
For the substance tirzepatide, for the setting “in vivo”, the t1/2 entry is on record as “about 5 days”.
